Like-named read-outs stand apart in the source and are kept apart here.
Key:
YxiN_core = target: T1, YxiN_core (UniProt P42305 1-368); assay: fluorescence intensity titration
T1 sequence: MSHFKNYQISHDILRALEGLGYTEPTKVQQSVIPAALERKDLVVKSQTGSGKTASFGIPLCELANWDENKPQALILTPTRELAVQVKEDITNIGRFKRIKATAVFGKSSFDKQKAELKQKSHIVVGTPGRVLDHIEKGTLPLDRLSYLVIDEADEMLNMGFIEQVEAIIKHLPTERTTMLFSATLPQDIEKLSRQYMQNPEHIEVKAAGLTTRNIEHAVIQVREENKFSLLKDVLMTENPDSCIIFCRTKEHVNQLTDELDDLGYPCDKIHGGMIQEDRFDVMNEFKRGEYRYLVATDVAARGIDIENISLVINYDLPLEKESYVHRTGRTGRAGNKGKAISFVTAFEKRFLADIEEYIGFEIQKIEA

YxiN RecA_C = target: T2, YxiN RecA_C (UniProt P42305 211-370); assay: fluorescence anisotropy
T2 sequence: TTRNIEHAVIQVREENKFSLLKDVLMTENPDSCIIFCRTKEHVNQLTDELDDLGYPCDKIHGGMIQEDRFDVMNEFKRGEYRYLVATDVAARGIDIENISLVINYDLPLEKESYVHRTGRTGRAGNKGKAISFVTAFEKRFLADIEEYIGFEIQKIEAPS

YxiN RecA_N = target: T3, YxiN RecA_N (UniProt P42305 1-206); assay: fluorescence anisotropy
T3 sequence: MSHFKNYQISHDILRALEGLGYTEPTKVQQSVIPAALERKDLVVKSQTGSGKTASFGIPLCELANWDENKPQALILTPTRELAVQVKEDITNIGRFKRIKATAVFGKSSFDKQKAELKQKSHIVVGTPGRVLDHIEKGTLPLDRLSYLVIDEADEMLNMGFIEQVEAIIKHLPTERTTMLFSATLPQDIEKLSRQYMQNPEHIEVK

Hera_core [1] = target: T4, Hera_core (UniProt Q72GF3 1-365); assay: fluorescence intensity titration
T4 sequence: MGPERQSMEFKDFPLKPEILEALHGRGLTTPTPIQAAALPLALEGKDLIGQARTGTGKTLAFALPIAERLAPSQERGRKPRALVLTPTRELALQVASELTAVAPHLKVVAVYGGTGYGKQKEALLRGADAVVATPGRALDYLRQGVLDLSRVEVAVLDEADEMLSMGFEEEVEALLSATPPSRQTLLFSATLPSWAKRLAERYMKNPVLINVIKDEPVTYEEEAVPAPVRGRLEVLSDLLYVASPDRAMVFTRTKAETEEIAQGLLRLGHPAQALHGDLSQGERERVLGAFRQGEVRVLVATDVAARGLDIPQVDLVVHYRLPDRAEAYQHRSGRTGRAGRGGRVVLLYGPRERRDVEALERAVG

Hera RecA_N = target: T5, Hera RecA_N (UniProt Q72GF3 1-207); assay: fluorescence intensity titration
T5 sequence: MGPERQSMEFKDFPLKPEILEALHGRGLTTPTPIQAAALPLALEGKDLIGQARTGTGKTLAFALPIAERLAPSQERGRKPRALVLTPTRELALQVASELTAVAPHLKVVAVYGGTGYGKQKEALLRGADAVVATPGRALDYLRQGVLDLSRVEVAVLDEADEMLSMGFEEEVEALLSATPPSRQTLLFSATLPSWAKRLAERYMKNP

Hera_core [2] = target: T4, Hera_core; assay: fluorescence intensity titration; remark: listed apart in the source
Hera RecA_C = target: T6, Hera RecA_C (UniProt Q72GF3 208-369); assay: fluorescence intensity titration
T6 sequence: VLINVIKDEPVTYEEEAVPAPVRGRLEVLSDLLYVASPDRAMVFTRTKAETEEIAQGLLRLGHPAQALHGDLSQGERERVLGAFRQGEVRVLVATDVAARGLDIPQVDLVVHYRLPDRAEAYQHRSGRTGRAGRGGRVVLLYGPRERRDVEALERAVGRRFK

B1: 14mer dsRNA (dsRNA)
RNA 1: GGGCGGGCCCGCCC
RNA 2: GGGCGGGCCCGCCC
- Kd (YxiN_core): 2 nM
- binding result (YxiN RecA_C): no binding
- binding result (YxiN RecA_N): no binding
- Kd (Hera_core [1]): 15.1 nM
- Kd (Hera RecA_N): 889 ± 236 nM
- Kd (Hera_core [2]): 7 ± 3 nM
- Kd (Hera RecA_C): 327 ± 161 nM
